The text below walks through data of the RNAGym collection of RNA variant scans (doi:10.1073/pnas.2313332121).

Fewer inactive variants are shown than the library holds. Where only a bound is given, the exact number is not on record here.

B1: TPR 5TU (parent)
chain: GGAUCUUCUCGAUCUAACAAAAAAGACAAAUCUGCCACAAAGCUUGAGAGCAUCUUCGGAUGCAGAGGCGGCAGCCUUCGGUGGCGCGAUAGCGCCAACGUUCUCAACUAUGACACGCAAAACGCGUGCUCCGUUGAAUGGAGUUUAUCAUG

This series covers variants of B1. The series can be described thus: polymerase ribozyme fitness, log enrichment relative to wild type (log ratio); higher = more active; in vitro selection for triplet polymerase activity. An outline of the steps:
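Mutant libraries were PCR-built and transcribed for each subunit of a heterodimeric triplet polymerase ribozyme and selected for one round in triplicate at −7 °C, frozen, before gel excision of extended constructs and streptavidin-bead capture. Input and output libraries were Illumina-sequenced, keeping genotypes with ≥10 input reads and ≥1 read per output. Fitness is a logarithmic ratio of genotype to wild-type enrichment, in base 2, using inverse-variance-weighted replicate averages.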
Regarding A19U G34A C38U G59C C95A C116A, the “polymerase ribozyme fitness (log ratio)” value was -4.19. Then A20G A26C A49C G68C C72G G81U C85A C93G G126C, with ≤ -4.2; and A20U A26U G83C, with ≤ -4.2. With A20C C85G A113U the figure was -3.57. On to A21C C27A C43U A89U G92U G126A U145A U151C, for which the “polymerase ribozyme fitness (log ratio)” value was ≤ -4.2.

On to A21C C57A C93G C99G C118U U139A U144A A150C, for which the “polymerase ribozyme fitness (log ratio)” value is ≤ -4.2.

Turning to A19U C93A, the “polymerase ribozyme fitness (log ratio)” value was -2.7. With A19U C93U the figure was -0.795. A21G G124C: the “polymerase ribozyme fitness (log ratio)” value was -0.489. As to A21C C57U C87G G126C A137C, the “polymerase ribozyme fitness (log ratio)” value is ≤ -4.2. With A21G A52G U53A C54U C87U C95A G136A G140U the figure was ≤ -4.2; with A20U G141C, -1.4. Then A21G C27G A29C A73C G74U C75G C85U G88A, with ≤ -4.2. With A20G C32U G84U C93G the figure was -4.2; with A19U, -0.43; with A21C A47C G58C, 0.582. As to A21G C75U A120G, the “polymerase ribozyme fitness (log ratio)” value came out at 0.879. With A21G C57U C93U G136C the figure was -4.04. Then A21G A37G C95U A115G G143C, with -3.82; and A19U A20U C85U C118U, with -2.63; and A20U C85A G94C A121C, with -0.745. With A21C U31A A49C U61A C93U G133C the figure was ≤ -4.2.

Turning to A21C A23G C51G U55A U101A, the “polymerase ribozyme fitness (log ratio)” value was ≤ -4.2.

As to A20G C93U C99A G124U, the “polymerase ribozyme fitness (log ratio)” value is -2.78. With A20U A73G U104G A115G the figure was ≤ -4.2; with A20C G50U C95U A106U A137C, ≤ -4.2; with A21C C57G C75A A98G A107U C123U A142U G143C, ≤ -4.2.

As to A20U G133C, the “polymerase ribozyme fitness (log ratio)” value is -3.79.

Regarding A21G A52G C85U U104G, the “polymerase ribozyme fitness (log ratio)” value is -0.132. Then A20U A29G C43U C75U U77G G94C U109G A113U, with ≤ -4.2. Then A19U A52G U56G G80C G84U A98C A110U, with ≤ -4.2. Then A20C C51G C95G C149U, with ≤ -4.2.

As for A21G G46U U55A U151G, the “polymerase ribozyme fitness (log ratio)” value is ≤ -4.2.

Take A19U A73G: the “polymerase ribozyme fitness (log ratio)” value is 0.504. With A21C C36U C57A C95U A97G A98U C125U the figure was -3.21; with A20U C35G A49C G94A G100C A119U A120G U134C, ≤ -4.2. With A21C G50C the figure was -1.92. With A20G G48A C69A A98U A142G, the “polymerase ribozyme fitness (log ratio)” value is -3.3. With A19U C85U A107G the figure was ≤ -4.2; with A19U A49U G71A C93U U102G C103G, ≤ -4.2; with A20U C43A C69U A138G, ≤ -4.2. With A20C A21U A30G A40G G94U A121G A137U the figure was ≤ -4.2; with A19U A20C U109G, -2.07. Then A21C A24G A52G G67A C85A G141C, with ≤ -4.2; and A21G C32U G84U A115U U144C, with ≤ -4.2. Consider A19U A23U U77C C87U A106U C108G C123G, for which the “polymerase ribozyme fitness (log ratio)” value is -4.07.

For the variant A20U A26U A40C U44A C105G C114U C116A, the “polymerase ribozyme fitness (log ratio)” value was ≤ -4.2.

In the case of A19U A23U A26U C54U A60G A120U U151G, the “polymerase ribozyme fitness (log ratio)” value is ≤ -4.2.

Take A20G A26G G65A C69A C105A: the “polymerase ribozyme fitness (log ratio)” value is ≤ -4.2. Then A19U G58A G62A G67A A89G C108A C116A G152U, with ≤ -4.2; and A20U A52C C93U, with -3.12; and A21G A40C, with 0.803. As for A21C A22U U53A C85A G124A, the “polymerase ribozyme fitness (log ratio)” value was -2.42. Then A20U A29G G42A C57A A91G G94C, with ≤ -4.2; and A20U A30U A39G C75A, with ≤ -4.2; and A20U A41U G59A G67A G86C, with ≤ -4.2. Consider A19U A24C G86A G140U, for which the “polymerase ribozyme fitness (log ratio)” value is ≤ -4.2. A19U A91U: the “polymerase ribozyme fitness (log ratio)” value was ≤ -4.2. With A19U A91G the figure was -2.85; with A20U G34C C96G, ≤ -4.2. With A20U C54U C95U C96A the figure was -2.31; with A19U G62A C96G, -1.02; with A19U G58U C87U A119U, -2.02. Then A20U A47C U55A U56G C72U C87A G88C A115G, with ≤ -4.2; and A20U G58A G81A, with -0.836; and A20U A30U A39U G62A G68A G140U, with ≤ -4.2. With A19U U53G U55A C85G, the “polymerase ribozyme fitness (log ratio)” value was ≤ -4.2. With A20C A40C U56G C96G A121U the figure was -1.15; with A19U A37U G67C C85A U109G U148C, ≤ -4.2; with A21C G25C U53A G74A C87G, ≤ -4.2.

For A19U A22G A52C C114A A142G, the “polymerase ribozyme fitness (log ratio)” value was ≤ -4.2. With A19U A37C U82G A89U C95G A97C A107U U127A the figure was ≤ -4.2; with A21C C27U C35U G68A C96A A147G, ≤ -4.2. With A21G C54U C96G C129A the figure was -3.17; with A20C C57G C85A C118U G143C, -3.96; with A20U C51U C79A C93A A97U U148G, ≤ -4.2.

Regarding A19U A142C, the “polymerase ribozyme fitness (log ratio)” value was -1.11. With A20C A29C G92U C149G, the “polymerase ribozyme fitness (log ratio)” value is ≤ -4.2. On to A21G A22G A47C C51A G74C C75U U102G C132G G143C, for which the “polymerase ribozyme fitness (log ratio)” value is ≤ -4.2.

For A19U G59A G88U A89G G94U A113G, the “polymerase ribozyme fitness (log ratio)” value is ≤ -4.2. Then A20U A40C G59A U77C U101C C108A U146G, with ≤ -4.2; and A20U A23C C72U G88C A91G C99U G140U, with ≤ -4.2; and A21C A89U U104A, with -0.361.
